T1: SIP1 Smad-binding domain (amino acids 315–487) on the 3xFlag-thioredoxin scaffold (UniProt Q9R0G7 315-487)
T1 construct: SIP1, amino acids 315–487; amplified from pACT2-SIP1-315-487 (from D. Huylebroeck), which I recall as a mouse clone; cloned into the RsrII site of pCI-3xFLAG-Trx; also called Sip1 315–487; TrxSIP1; source: HEK-293, transfected, in lysate
T1 sequence (looked up): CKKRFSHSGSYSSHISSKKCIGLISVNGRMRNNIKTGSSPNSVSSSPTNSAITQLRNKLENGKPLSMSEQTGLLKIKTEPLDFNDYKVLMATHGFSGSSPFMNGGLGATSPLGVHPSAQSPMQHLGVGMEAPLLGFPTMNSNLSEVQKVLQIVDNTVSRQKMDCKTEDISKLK

T2: Flag-SARA, full length (UniProt O95405 1-1425)
T2 construct: SARA; plasmid pCMV5b-Flag-SARA; also called SARA FL; source: HEK-293, transfected, in lysate
T2 sequence (looked up): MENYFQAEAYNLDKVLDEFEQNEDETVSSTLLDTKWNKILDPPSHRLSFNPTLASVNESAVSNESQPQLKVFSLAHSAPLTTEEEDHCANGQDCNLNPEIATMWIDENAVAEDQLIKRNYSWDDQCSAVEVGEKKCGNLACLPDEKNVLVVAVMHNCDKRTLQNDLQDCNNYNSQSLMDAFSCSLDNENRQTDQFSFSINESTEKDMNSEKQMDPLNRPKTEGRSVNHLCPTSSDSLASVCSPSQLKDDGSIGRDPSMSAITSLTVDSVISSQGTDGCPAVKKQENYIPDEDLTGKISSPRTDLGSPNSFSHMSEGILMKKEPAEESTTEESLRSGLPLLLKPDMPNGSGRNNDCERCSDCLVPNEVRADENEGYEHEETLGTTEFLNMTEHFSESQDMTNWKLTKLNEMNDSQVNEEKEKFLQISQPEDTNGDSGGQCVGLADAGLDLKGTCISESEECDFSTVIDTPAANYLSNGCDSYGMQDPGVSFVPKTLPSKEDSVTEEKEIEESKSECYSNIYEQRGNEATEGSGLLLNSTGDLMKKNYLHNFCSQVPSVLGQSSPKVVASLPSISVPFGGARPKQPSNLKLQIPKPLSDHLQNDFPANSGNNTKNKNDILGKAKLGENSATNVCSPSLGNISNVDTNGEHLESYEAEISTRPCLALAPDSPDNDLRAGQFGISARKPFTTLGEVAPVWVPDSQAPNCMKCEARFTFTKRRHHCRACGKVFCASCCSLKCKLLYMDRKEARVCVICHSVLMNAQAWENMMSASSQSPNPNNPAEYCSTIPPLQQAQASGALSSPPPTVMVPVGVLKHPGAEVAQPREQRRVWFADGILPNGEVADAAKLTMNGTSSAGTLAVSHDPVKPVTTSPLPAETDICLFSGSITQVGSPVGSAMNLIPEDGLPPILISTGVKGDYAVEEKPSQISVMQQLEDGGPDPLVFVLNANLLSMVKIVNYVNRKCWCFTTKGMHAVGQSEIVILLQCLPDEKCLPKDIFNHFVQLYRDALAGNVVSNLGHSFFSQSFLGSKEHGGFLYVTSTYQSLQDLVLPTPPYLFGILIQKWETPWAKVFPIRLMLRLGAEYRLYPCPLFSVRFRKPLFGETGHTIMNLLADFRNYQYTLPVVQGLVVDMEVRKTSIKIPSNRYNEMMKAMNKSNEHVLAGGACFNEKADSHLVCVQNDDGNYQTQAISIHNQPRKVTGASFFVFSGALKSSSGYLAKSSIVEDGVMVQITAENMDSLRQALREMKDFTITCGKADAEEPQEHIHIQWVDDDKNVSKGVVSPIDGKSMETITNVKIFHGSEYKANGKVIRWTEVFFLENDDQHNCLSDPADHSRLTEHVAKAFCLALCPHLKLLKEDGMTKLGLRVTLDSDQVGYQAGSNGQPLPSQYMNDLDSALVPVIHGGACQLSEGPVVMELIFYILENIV


Legend:
Test in all cases: co-IP; LUMIER: Renilla luciferase-Smad3 and Flag-tagged partner co-expressed with constitutively active Alk5 in HEK-293; Flag protein captured from cleared lysate (TNE: 10 mM Tris-HCl pH 7.8, 150 mM NaCl, 1 mM EDTA, 1% Igepal CA-630) on anti-Flag 96-well plates, 2 h at 4 °C; co-precipitated Renilla luciferase activity, TrxGA background subtracted, percent of wild-type Smad3
Details in all cases: partners not purified
[1] = biological target: T1, SIP1 Smad-binding domain (amino acids …)
Flag-SARA, full length = biological target: T2, Flag-SARA, full length
Flag-Smad3, full length = biological target: T3, Flag-Smad3, full length (UniProt P84022 1-425)
T3 construct: Smad3; plasmid pCMV5-Flag-Smad3 (from J. Massagué); bait for Smad3-Smad3 association; also called Smad3 FL; source: HEK-293, transfected together with constitutively active Alk5, in lysate

Binder	percent binding relative to wild-type Smad3 [1]	percent binding relative to wild-type Smad3 (Flag-SARA, full length)	percent binding relative to wild-type Smad3 (Flag-Smad3, full length)
Renilla luciferase-Smad3 R268A (natural protein, UniProt P84022 1-425, looked up, Smad3; source: HEK-293, transfected together with constitutively active Alk5, in lysate) MSSILPFTPPIVKRLLGWKKGEQNGQEEKWCEKAVKSLVKKLKKTGQLDELEKAITTQNVNTKCITIPRSLDGRLQVSHRKGLPHVIYCRLWRWPDLHSHHELRAMELCEFAFNMKKDEVCVNPYHYQRVETPVLPPVLVPRHTEIPAEFPPLDDYSHSIPENTNFPAGIEPQSNIPETPPPGYLSEDGETSDHQMNHSMDAGSPNLSPNPMSPAHNNLDLQPVTYCEPAFWCSISYYELNQRVGETFHASQPSMTVDGFTDPSNSEAFCLGLLSNVNRNAAVELTRRHIGRGVRLYYIGGEVFAECLSDSAIFVQSPNCNQRYGWHPATVCKIPPGCNLKIFNNQEFAALLAQSVNQGFEAVYQLTRMCTIRMSFVKGWGAEYRRQTVTSTPCWIELHLNGPLQWLDKVLTQMGSPSIRCSSVS	13%	159%	27%
Renilla luciferase-Smad3 Y238A (natural protein, UniProt P84022 1-425, looked up, Smad3; source: HEK-293, transfected together with constitutively active Alk5, in lysate) MSSILPFTPPIVKRLLGWKKGEQNGQEEKWCEKAVKSLVKKLKKTGQLDELEKAITTQNVNTKCITIPRSLDGRLQVSHRKGLPHVIYCRLWRWPDLHSHHELRAMELCEFAFNMKKDEVCVNPYHYQRVETPVLPPVLVPRHTEIPAEFPPLDDYSHSIPENTNFPAGIEPQSNIPETPPPGYLSEDGETSDHQMNHSMDAGSPNLSPNPMSPAHNNLDLQPVTYCEPAFWCSISYAELNQRVGETFHASQPSMTVDGFTDPSNSERFCLGLLSNVNRNAAVELTRRHIGRGVRLYYIGGEVFAECLSDSAIFVQSPNCNQRYGWHPATVCKIPPGCNLKIFNNQEFAALLAQSVNQGFEAVYQLTRMCTIRMSFVKGWGAEYRRQTVTSTPCWIELHLNGPLQWLDKVLTQMGSPSIRCSSVS	15%	162%	24%
Renilla luciferase-Smad3 R243A (natural protein, UniProt P84022 1-425, looked up, Smad3; source: HEK-293, transfected together with constitutively active Alk5, in lysate) MSSILPFTPPIVKRLLGWKKGEQNGQEEKWCEKAVKSLVKKLKKTGQLDELEKAITTQNVNTKCITIPRSLDGRLQVSHRKGLPHVIYCRLWRWPDLHSHHELRAMELCEFAFNMKKDEVCVNPYHYQRVETPVLPPVLVPRHTEIPAEFPPLDDYSHSIPENTNFPAGIEPQSNIPETPPPGYLSEDGETSDHQMNHSMDAGSPNLSPNPMSPAHNNLDLQPVTYCEPAFWCSISYYELNQAVGETFHASQPSMTVDGFTDPSNSERFCLGLLSNVNRNAAVELTRRHIGRGVRLYYIGGEVFAECLSDSAIFVQSPNCNQRYGWHPATVCKIPPGCNLKIFNNQEFAALLAQSVNQGFEAVYQLTRMCTIRMSFVKGWGAEYRRQTVTSTPCWIELHLNGPLQWLDKVLTQMGSPSIRCSSVS	28%	181%	46%
Renilla luciferase-Smad3 Y384A (natural protein, UniProt P84022 1-425, looked up, Smad3; source: HEK-293, transfected together with constitutively active Alk5, in lysate) MSSILPFTPPIVKRLLGWKKGEQNGQEEKWCEKAVKSLVKKLKKTGQLDELEKAITTQNVNTKCITIPRSLDGRLQVSHRKGLPHVIYCRLWRWPDLHSHHELRAMELCEFAFNMKKDEVCVNPYHYQRVETPVLPPVLVPRHTEIPAEFPPLDDYSHSIPENTNFPAGIEPQSNIPETPPPGYLSEDGETSDHQMNHSMDAGSPNLSPNPMSPAHNNLDLQPVTYCEPAFWCSISYYELNQRVGETFHASQPSMTVDGFTDPSNSERFCLGLLSNVNRNAAVELTRRHIGRGVRLYYIGGEVFAECLSDSAIFVQSPNCNQRYGWHPATVCKIPPGCNLKIFNNQEFAALLAQSVNQGFEAVYQLTRMCTIRMSFVKGWGAEARRQTVTSTPCWIELHLNGPLQWLDKVLTQMGSPSIRCSSVS	41%	178%	28%

Next, values leading:

percent binding relative to wild-type Smad3 [1]	percent binding relative to wild-type Smad3 (Flag-SARA, full length)	percent binding relative to wild-type Smad3 (Flag-Smad3, full length)	Binder
41%	168%	30%	Renilla luciferase-Smad3 D408H (natural protein, UniProt P84022 1-425, looked up, Smad3; source: HEK-293, transfected together with constitutively active Alk5, in lysate) MSSILPFTPPIVKRLLGWKKGEQNGQEEKWCEKAVKSLVKKLKKTGQLDELEKAITTQNVNTKCITIPRSLDGRLQVSHRKGLPHVIYCRLWRWPDLHSHHELRAMELCEFAFNMKKDEVCVNPYHYQRVETPVLPPVLVPRHTEIPAEFPPLDDYSHSIPENTNFPAGIEPQSNIPETPPPGYLSEDGETSDHQMNHSMDAGSPNLSPNPMSPAHNNLDLQPVTYCEPAFWCSISYYELNQRVGETFHASQPSMTVDGFTDPSNSERFCLGLLSNVNRNAAVELTRRHIGRGVRLYYIGGEVFAECLSDSAIFVQSPNCNQRYGWHPATVCKIPPGCNLKIFNNQEFAALLAQSVNQGFEAVYQLTRMCTIRMSFVKGWGAEYRRQTVTSTPCWIELHLNGPLQWLHKVLTQMGSPSIRCSSVS
32%	120%	49%	Renilla luciferase-Smad3 R292A (natural protein, UniProt P84022 1-425, looked up, Smad3; source: HEK-293, transfected together with constitutively active Alk5, in lysate) MSSILPFTPPIVKRLLGWKKGEQNGQEEKWCEKAVKSLVKKLKKTGQLDELEKAITTQNVNTKCITIPRSLDGRLQVSHRKGLPHVIYCRLWRWPDLHSHHELRAMELCEFAFNMKKDEVCVNPYHYQRVETPVLPPVLVPRHTEIPAEFPPLDDYSHSIPENTNFPAGIEPQSNIPETPPPGYLSEDGETSDHQMNHSMDAGSPNLSPNPMSPAHNNLDLQPVTYCEPAFWCSISYYELNQRVGETFHASQPSMTVDGFTDPSNSERFCLGLLSNVNRNAAVELTRRHIGAGVRLYYIGGEVFAECLSDSAIFVQSPNCNQRYGWHPATVCKIPPGCNLKIFNNQEFAALLAQSVNQGFEAVYQLTRMCTIRMSFVKGWGAEYRRQTVTSTPCWIELHLNGPLQWLDKVLTQMGSPSIRCSSVS
